Assay results: patent publication US20250135039A1, “INHIBITOR-RESISTANT MGMT MODIFICATIONS AND MODIFICATION OF MGMT-ENCODING NUCLEIC ACIDS” (Ensoma, Inc., priority 2022, published 2025)
Numbering of substitutions follows the chain as printed. Names may count otherwise.

Tested on: U251 human glioblastoma cell line
Assay: in vitro FM-HCR assay of MGMT activity (mPlum O^6MeG reporter plasmid)
Type: cell-based
Details: for Reporter expression (%) mean, O^6BG: 100 μM O^6BG; for Reporter expression (%) mean, O^6BG / Reporter expression (%) mean, DMSO: U251 cells, flow cytometry 24 h after transfection, damaged/undamaged reporter, inversely related to MGMT activity; for Reporter expression (%) mean, DMSO: 0.1% DMSO; for MGMT activity (a.u.) DMSO / MGMT activity (% of WT) DMSO: DMSO condition; for MGMT activity (a.u.) DMSO / MGMT activity (a.u.) O^6BG: determined from percent reporter expression; for MGMT activity (% of WT) DMSO / MGMT activity (% of WT) O^6BG: relative to wild-type MGMT in same condition; for Relative MGMT activity (%): MGMT activity (a.u.) in O^6BG divided by DMSO x 100, higher values indicate resistance; for MGMT activity (a.u.) O^6BG / MGMT activity (% of WT) O^6BG: O^6BG condition; for Ratio percent reporter expression (O^6BG/DMSO): lower values indicate resistance to O^6BG; for O^6BG resistance relative to WT (%): percentage difference in relative MGMT activity between variant and wild-type MGMT
In short: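 U251 cells transfected with MGMT variant plasmid, mPlum O^6MeG reporter (or undamaged mPlum plasmid) and BFP control, in 100 μM O^6BG or 0.1% DMSO; flow cytometry at 24 h. mPlum count×intensity normalized to BFP; percent reporter expression = damaged/undamaged ×100, inversely related to MGMT activity.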

B1: G156A: MGMT polypeptide with mutation G156A (protein)
chain: MDKDCEMKRTTLDSPLGKLELSGCEQGLHEIKLLGKGTSAADAVEVPAPAAVLGGPEPLMQCTAWLNAYFHQPEAIEEFPVPALHHPVFQQESFTRQVLWKLLKVVKFGEVISYQQLAALAGNPKAARAVGGAMRGNPVPILIPCHRVVCSSGAVANYSGGLAVKEWLLAHEGHRLGKPGLGGSSGLAGAWLKGAGATSGSPPAGRN
B1 was tested, and the “Reporter expression (%) mean, O^6BG” value was 79.0%, the “Reporter expression (%) mean, DMSO” value was 32.3% and the “MGMT activity (a.u.) DMSO” value was 3.10 a.u. For the same molecule, the “MGMT activity (% of WT) DMSO” value was 57.4 % of WT, the “Relative MGMT activity (%)” value was 40.8% and the “MGMT activity (a.u.) O^6BG” value was 1.27 a.u. The “MGMT activity (% of WT) O^6BG” value was 88.6 % of WT, the “Ratio percent reporter expression (O^6BG/DMSO)” value was 2.45 and the “O^6BG resistance relative to WT (%)” value was 54.5%.

B2: G160H: MGMT polypeptide with mutation G160H (protein)
chain: B1 chain with A156G, G160H
For B2, the “Reporter expression (%) mean, O^6BG” value was 21.3%, the “Reporter expression (%) mean, DMSO” value was 10.3% and the “MGMT activity (a.u.) DMSO” value was 9.68 a.u. The “MGMT activity (% of WT) DMSO” value was 179.0 % of WT, the “Relative MGMT activity (%)” value was 48.4% and the “MGMT activity (a.u.) O^6BG” value was 4.69 a.u. The “MGMT activity (% of WT) O^6BG” value was 328.1 % of WT, the “Ratio percent reporter expression (O^6BG/DMSO)” value was 2.06 and the “O^6BG resistance relative to WT (%)” value was 83.3%.

B3: S159I: MGMT polypeptide with mutation S159I (protein)
chain: B1 chain with A156G, S159I
In the case of B3, the “Reporter expression (%) mean, O^6BG” value is reported as 40.3%, the “Reporter expression (%) mean, DMSO” value is reported as 18.0% and the “MGMT activity (a.u.) DMSO” value is reported as 5.56 a.u. The “MGMT activity (% of WT) DMSO” value was 102.8 % of WT, the “Relative MGMT activity (%)” value was 44.6% and the “MGMT activity (a.u.) O^6BG” value was 2.48 a.u. For the same molecule, the “MGMT activity (% of WT) O^6BG” value was 173.6 % of WT, the “Ratio percent reporter expression (O^6BG/DMSO)” value was 2.24 and the “O^6BG resistance relative to WT (%)” value was 68.9%.

B4: Y158F: MGMT polypeptide with mutation Y158F (protein)
chain: B1 chain with A156G, Y158F
B4 was tested, and the “Reporter expression (%) mean, O^6BG” value was 61.3%, the “Reporter expression (%) mean, DMSO” value was 12.3% and the “MGMT activity (a.u.) DMSO” value was 8.11 a.u. The “MGMT activity (% of WT) DMSO” value was 150.0 % of WT, the “Relative MGMT activity (%)” value was 20.1% and the “MGMT activity (a.u.) O^6BG” value was 1.63 a.u. The “MGMT activity (% of WT) O^6BG” value was 114.1 % of WT, the “Ratio percent reporter expression (O^6BG/DMSO)” value was 4.97 and the “O^6BG resistance relative to WT (%)” value was −23.9%.

B5: S159F: MGMT polypeptide with mutation S159F (protein)
chain: B1 chain with A156G, S159F
With B5 the “Reporter expression (%) mean, O^6BG” value was 102.7%, the “Reporter expression (%) mean, DMSO” value was 23.0% and the “MGMT activity (a.u.) DMSO” value was 4.35 a.u. The “MGMT activity (% of WT) DMSO” value was 80.4 % of WT, the “Relative MGMT activity (%)” value was 22.4% and the “MGMT activity (a.u.) O^6BG” value was 0.97 a.u. For the same molecule, the “MGMT activity (% of WT) O^6BG” value was 68.2 % of WT, the “Ratio percent reporter expression (O^6BG/DMSO)” value was 4.46 and the “O^6BG resistance relative to WT (%)” value was −15.2%.

B6: G156I: MGMT polypeptide with mutation G156I (protein)
chain: B1 chain with A156I
For B6, the “Reporter expression (%) mean, O^6BG” value was 54.0%, the “Reporter expression (%) mean, DMSO” value was 42.0% and the “MGMT activity (a.u.) DMSO” value was 2.38 a.u. The “MGMT activity (% of WT) DMSO” value was 44.0 % of WT, the “Relative MGMT activity (%)” value was 77.8% and the “MGMT activity (a.u.) O^6BG” value was 1.85 a.u. For the same molecule, the “MGMT activity (% of WT) O^6BG” value was 129.6 % of WT, the “Ratio percent reporter expression (O^6BG/DMSO)” value was 1.29 and the “O^6BG resistance relative to WT (%)” value was 194.3%.

B7: S159W: MGMT polypeptide with mutation S159W (protein)
chain: B1 chain with A156G, S159W
B7 was tested, and the “Reporter expression (%) mean, O^6BG” value was 108.0%, the “Reporter expression (%) mean, DMSO” value was 31.3% and the “MGMT activity (a.u.) DMSO” value was 3.19 a.u. The “MGMT activity (% of WT) DMSO” value was 59.0 % of WT, the “Relative MGMT activity (%)” value was 29.0% and the “MGMT activity (a.u.) O^6BG” value was 0.93 a.u. For the same molecule, the “MGMT activity (% of WT) O^6BG” value was 64.8 % of WT, the “Ratio percent reporter expression (O^6BG/DMSO)” value was 3.45 and the “O^6BG resistance relative to WT (%)” value was 9.8%.

B8: Y158H: MGMT polypeptide with mutation Y158H (protein)
chain: B1 chain with A156G, Y158H
With B8 the “Reporter expression (%) mean, O^6BG” value was 30.3%, the “Reporter expression (%) mean, DMSO” value was 23.3% and the “MGMT activity (a.u.) DMSO” value was 4.29 a.u. For the same molecule, the “MGMT activity (% of WT) DMSO” value was 79.3 % of WT, the “Relative MGMT activity (%)” value was 76.9% and the “MGMT activity (a.u.) O^6BG” value was 3.30 a.u. The “MGMT activity (% of WT) O^6BG” value was 230.8 % of WT, the “Ratio percent reporter expression (O^6BG/DMSO)” value was 1.30 and the “O^6BG resistance relative to WT (%)” value was 191.1%.

B9: Y158M: MGMT polypeptide with mutation Y158M (protein)
chain: B1 chain with A156G, Y158M
B9 was tested, and the “Reporter expression (%) mean, O^6BG” value was 60.0%, the “Reporter expression (%) mean, DMSO” value was 47.7% and the “MGMT activity (a.u.) DMSO” value was 2.10 a.u. The “MGMT activity (% of WT) DMSO” value was 38.8 % of WT, the “Relative MGMT activity (%)” value was 79.4% and the “MGMT activity (a.u.) O^6BG” value was 1.67 a.u. The “MGMT activity (% of WT) O^6BG” value was 116.7 % of WT, the “Ratio percent reporter expression (O^6BG/DMSO)” value was 1.26 and the “O^6BG resistance relative to WT (%)” value was 200.6%.

B10: G160E: MGMT polypeptide with mutation G160E (protein)
chain: B1 chain with A156G, G160E
For B10, the “Reporter expression (%) mean, O^6BG” value was 63.3%, the “Reporter expression (%) mean, DMSO” value was 15.3% and the “MGMT activity (a.u.) DMSO” value was 6.56 a.u. For the same molecule, the “MGMT activity (% of WT) DMSO” value was 121.3 % of WT, the “Relative MGMT activity (%)” value was 24.1% and the “MGMT activity (a.u.) O^6BG” value was 1.58 a.u. For the same molecule, the “MGMT activity (% of WT) O^6BG” value was 110.7 % of WT, the “Ratio percent reporter expression (O^6BG/DMSO)” value was 4.15 and the “O^6BG resistance relative to WT (%)” value was −8.8%.

B11: G160D: MGMT polypeptide with mutation G160D (protein)
chain: B1 chain with A156G, G160D
With B11 the “Reporter expression (%) mean, O^6BG” value was 72.8%, the “Reporter expression (%) mean, DMSO” value was 23.0% and the “MGMT activity (a.u.) DMSO” value was 4.35 a.u. For the same molecule, the “MGMT activity (% of WT) DMSO” value was 80.4 % of WT, the “Relative MGMT activity (%)” value was 31.6% and the “MGMT activity (a.u.) O^6BG” value was 1.37 a.u. For the same molecule, the “MGMT activity (% of WT) O^6BG” value was 96.2 % of WT, the “Ratio percent reporter expression (O^6BG/DMSO)” value was 3.16 and the “O^6BG resistance relative to WT (%)” value was 19.6%.

B12: S159Y: MGMT polypeptide with mutation S159Y (protein)
chain: B1 chain with A156G, S159Y
For B12, the “Reporter expression (%) mean, O^6BG” value was 142.7%, the “Reporter expression (%) mean, DMSO” value was 26.0% and the “MGMT activity (a.u.) DMSO” value was 3.85 a.u. For the same molecule, the “MGMT activity (% of WT) DMSO” value was 71.2 % of WT, the “Relative MGMT activity (%)” value was 18.2% and the “MGMT activity (a.u.) O^6BG” value was 0.70 a.u. The “MGMT activity (% of WT) O^6BG” value was 49.1 % of WT, the “Ratio percent reporter expression (O^6BG/DMSO)” value was 5.49 and the “O^6BG resistance relative to WT (%)” value was −31.0%.

B13: G156P: MGMT polypeptide with mutation G156P (protein)
chain: B1 chain with A156P
B13 was tested, and the “Reporter expression (%) mean, O^6BG” value was 47.3%, the “Reporter expression (%) mean, DMSO” value was 41.0% and the “MGMT activity (a.u.) DMSO” value was 2.44 a.u. The “MGMT activity (% of WT) DMSO” value was 45.1 % of WT, the “Relative MGMT activity (%)” value was 86.6% and the “MGMT activity (a.u.) O^6BG” value was 2.11 a.u. The “MGMT activity (% of WT) O^6BG” value was 147.9 % of WT, the “Ratio percent reporter expression (O^6BG/DMSO)” value was 1.15 and the “O^6BG resistance relative to WT (%)” value was 227.8%.

B14: G156V: MGMT polypeptide with mutation G156V (protein)
chain: B1 chain with A156V
B14 was tested, and the “Reporter expression (%) mean, O^6BG” value was 55.0%, the “Reporter expression (%) mean, DMSO” value was 36.8% and the “MGMT activity (a.u.) DMSO” value was 2.72 a.u. The “MGMT activity (% of WT) DMSO” value was 50.3 % of WT, the “Relative MGMT activity (%)” value was 66.8% and the “MGMT activity (a.u.) O^6BG” value was 1.82 a.u. The “MGMT activity (% of WT) O^6BG” value was 127.3 % of WT, the “Ratio percent reporter expression (O^6BG/DMSO)” value was 1.50 and the “O^6BG resistance relative to WT (%)” value was 152.8%.

B15: G160A: MGMT polypeptide with mutation G160A (protein)
chain: B1 chain with A156G, G160A
With B15 the “Reporter expression (%) mean, O^6BG” value was 74.5%, the “Reporter expression (%) mean, DMSO” value was 15.5% and the “MGMT activity (a.u.) DMSO” value was 6.45 a.u. The “MGMT activity (% of WT) DMSO” value was 119.4 % of WT, the “Relative MGMT activity (%)” value was 20.8% and the “MGMT activity (a.u.) O^6BG” value was 1.34 a.u. The “MGMT activity (% of WT) O^6BG” value was 94.0 % of WT, the “Ratio percent reporter expression (O^6BG/DMSO)” value was 4.81 and the “O^6BG resistance relative to WT (%)” value was −21.3%.

B16: Y158W: MGMT polypeptide with mutation Y158W (protein)
chain: B1 chain with A156G, Y158W
For B16, the “Reporter expression (%) mean, O^6BG” value was 86.7%, the “Reporter expression (%) mean, DMSO” value was 26.0% and the “MGMT activity (a.u.) DMSO” value was 3.85 a.u. For the same molecule, the “MGMT activity (% of WT) DMSO” value was 71.2 % of WT, the “Relative MGMT activity (%)” value was 30.0% and the “MGMT activity (a.u.) O^6BG” value was 1.15 a.u. The “MGMT activity (% of WT) O^6BG” value was 80.8 % of WT, the “Ratio percent reporter expression (O^6BG/DMSO)” value was 3.33 and the “O^6BG resistance relative to WT (%)” value was 13.5%.
